# From the nanobody polyreactivity screen of Harvey et al. (2022)
# Experiment: yeast display, Sf9 membrane polyspecificity reagent, FACS + sequencing; frameworks hold sequencing errors
# Summary of the method: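 A nanobody's polyreactivity label depends on the gate it was sorted from. Yeast display cells were stained with 10% biotinylated, detergent-solubilized Sf9 membrane reagent for 1 hour at 4 °C, enriched on streptavidin microbeads and sorted by FACS. The low and high (top ~1%) gates were set on anti-HA fluorescence for expression and streptavidin fluorescence for reagent binding.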
row,Sequence,polyreactivity (PSR sort gate)
1,QVQLVESVGCLVQAGGTLRLSCAATGRIFADYAMGWYRQAPGKERELVATITSGDRTYYADSVKGRFTTSRDNAKNTVYLQMNSLKPEDTAVYYCAAYKPWYVGLYPWYDYWGQGTQVTVSS,low polyreactivity
2,QVQLVESVGGLDQAGGSLPLSCAASGSTLAVYDMGWSRQAPGKESELVAAISTTGGRTYYADSVKGRFTISRDNSKNTVYLQMNRLKPEDTAVYYCNADAEDVIYYEYDYCGQGTQVTVSS,low polyreactivity
3,QVQLVESVGGLDQAGGSLRLSCAASGFTFYTNAMGWYRQAPGKEREFVAAISWSGTGTYYADSVKGRFTISRDNAKNTVYLQMYSLIPDDTAVYYCAARDRWRGGRKFDYWGQGTQVTVSS,high polyreactivity
4,QVQLVESVGGLLQAGGSLRLSCAASGSTFYNYAMGWYRQAPGKERELVAAIRNGGGTNYADSVKGRFTISRDNAKNTVYLQMNSLKPEDTAVYYCSTRLDWRRTYGYWGQGTQVTVSS,low polyreactivity
5,QVQLVESVGGLVHAGGSLRLSCAASGSIFTKNAMGWYRHAPGKERELVAAITGSGGSTYYADSVKGRFTISRDNAKNTVYLQMNSLKPEDTALYYCAANFVFWSGAVYTRYDYWGQGTQVTVSS,high polyreactivity
6,QVQLVESVGGLVQAGGRLRLSCAASGITFYSYTMGWYRQAPGKERELVAAISDNGGRTFYADSVKGRFTISRDNAKNTVYLQMNSLKPEDTAVYYCAASRRRAVDYWGQGTQVTVSS,low polyreactivity
7,QVQLVESVGGLVQAGGSLLLSCAAYGDISRYNTMGWYRQAPGKERELVPAITWSGGSTYADSVKGRFTISRDNAKNTVYLQMNSLKPEDTAVYYCAAGAYIWDNYSYRWYDYLGQGTQVTVSS,high polyreactivity
8,QVQLVESVGGLVQAGGSLRISCAASGRIFTHNVMGWYRQAPGKERELVAAISASGGSTYYADSVKGRFTISRDNAKNTVYLQMNSLKPEDTAVYYCNAGDYRTFYRRFDYWGQGTQVTVSS,low polyreactivity
9,QVQLVESVGGLVQAGGSLRLICAASGSIFLDNAKGCYRQAPVKERELVSAISWGGGSTYYADSVKGRFTISRDNAKNTVYVQMNSLKPEDTAVYYCAAESYYYIRYFDYSRWMGYWGQGTQVTVSS,low polyreactivity
10,QVQLVESVGGLVQAGGSLRLICACSGLNFVSYAMGWYRQAPGKERELVAAINSRGSRTYYADSVKGRLTISRDNAKNTVYLQMNSLKPEDTALYYCAAGVIRYGGKEEYYYWGQGTQVTVSS,high polyreactivity
11,QVQLVESVGGLVQAGGSLRLSCAASGFILAVYVLGWYRQAPGKERELVAAISWSGGSTYYADSLKGRFTISRDNAKNTVYFKMNRLKPEYTAVYSCNTVAKSPVKYDYWGQGTQVTVSS,high polyreactivity
12,QVQLVESVGGLVQAGGSLRLSCAASGFTFRKYAMGWYRQAPGKERELVAGISWSGGTTYYADSVKGRFTISRDNAKNTVYLQMNSLKPEDTAVYYCNAKRVQVFAGYSYDYWGQGTQVTVSS,high polyreactivity
13,QVQLVESVGGLVQAGGSLRLSCAASGFTFSPNARGSYRQAPGKERELVAAIDWSGDRTYYADSVKGRFTISRDNAKNTVYLQMNILKPEDTAVYYCKVVRRSPGDYSYYYWGQGTQVTVSS,low polyreactivity
14,QVQLVESVGGLVQAGGSLRLSCAASGFTFSTNAMGWYRQAPGKERELVAAISRGGSTNYADSVKGRFTISRDNAKNTVYLQMNSLKPEDTAVYYCNAYLSPDEEEYYWGQGTQVTVSS,low polyreactivity
15,QVQLVESVGGLVQAGGSLRLSCAASGGTFGYNAMGWYRQAPGKERELVAAIRVNGGSTYYADSVKGRFTISRDNAKNTVYLQMNSLKPEDTAVYYCAAESRVYRTSYWYGYWGQGTQVTVSS,high polyreactivity
16,QVQLVESVGGLVQAGGSLRLSCAASGIIFSYYAMGWYRQPPGKERELVAVISSGGGSTYYADSVKGRFTISRDNAKNTVYLQMNSLKPDDTAVYYCNADRVDRELFTFDYWGQGTQVTVSS,high polyreactivity
17,QVQLVESVGGLVQAGGSLRLSCAASGIIFWLSTMGWYRQAPGKERELVAAITSGGSTYYADSVKGRLTISRDNAKNTVYLQMNSLKQEDTALYYCAAVPRYRRWKYDYWGQGTQVTVSS,high polyreactivity
18,QVQLVESVGGLVQAGGSLRLSCAASGITFYSYDMGWYRQAPGKERELVAAITYRGGSTYYADSVKGRFTISRDNAKNTVYLQMNSLKPEDTAVYYCNADLLPADAPLWVTGGDYWGQGTQVTVSS,low polyreactivity
19,QVQLVESVGGLVQAGGSLRLSCAASGLIFAYYAMGWYRQAPGKERELVAAISWTGGSTYYADSVKGRFTISRDNAKNTVYLQMNSLKPEDTAVYYCNTVGKPGFYSWGQGTQVTVSS,high polyreactivity
20,QVQLVESVGGLVQAGGSLRLSCAASGLTFGGNAMGRYRQAPGKVRELVAAISGSGGRTYYADSVKGRFTISRDNAKNTVYLQMNSLKPEDTAVYYCNAATKRRTSDYWGQGTQVTVSS,high polyreactivity
21,QVQLVESVGGLVQAGGSLRLSCAASGLTFGSYAMGWYRQAPGTDRELVAGINQSGGSTYYADSVKGRFTISRDNAKNTVSFQMNSLNPEDTAVYYCNAEAWVSQDWWQWVAYVYWGQGTQVTVSS,high polyreactivity
22,QVQLVESVGGLVQAGGSLRLSCAASGNIFRGYTMGWYRQAPGKESELVATITWTGVSTFYADSVKGRFTISRDNAKNTVYLQMNSLKPEDTAVYYCAAYYPSHDYSGFWSDTYEYWGQGTQVTVSS,low polyreactivity

row,Sequence,polyreactivity (PSR sort gate)
1,QVQLVESVGGLVQAGGSLRLSCAASGRIFDRYAMGWYRQAPGKERELVAAISSSGGSTYYADSVKGRFTISRDNAKNTVYLQMNSLKPEDTAVYYCAAPRSRSRTSRFDYWGQGTQVTVSS,high polyreactivity
2,QVQLVESVGGLVQAGGSLRLSCAASGRIFQYYAMGWYRQAPGKERELVAAITRSGGRTYYADSVKGRFTISRDNAKNTVYLQMNSLKPEDTAVYYCAARDWYYTMYYWGQGTQVTVSS,high polyreactivity
3,QVQLVESVGGLVQAGGSLRLSCAASGRIFSYNAMGWYRQAPGKERELVAAITWRGGNTYYADSVKGRFTISRDNAKNTVYLQMNSLKPEDTAVYYCNAVGYSKYYVRTGREFDYWGQGTQVTVSS,high polyreactivity
4,QVQLVESVGGLVQAGGSLRLSCAASGRIFYFNGMGWYRQAPGKERELVAAITISTGSTYYADSVKGRFTISRDNAKNTVYLQMNSLKPEDTAVYYCNVEFEYSGWKSFDYWGQGTQVTVSS,low polyreactivity
5,QVQLVESVGGLVQAGGSLRLSCAASGRTFAQNALGWYRQAPGKERELVAAIRSGGRTNYADSVKGRFTISRDNAKNTVYLQMNSLKPEDTAVYYCAAEWGYWSFYLGRAKVEYWGQGTQVTVSS,low polyreactivity
6,QVQLVESVGGLVQAGGSLRLSCAASGRTFAYYAMGWYRQAPGKERELVAAISYRGGTTYYADSVKGRFTISRDNSKNTVYLQMYILKQEDTAVYYCAAKVGVSWYGYWGKGTQVTVSS,high polyreactivity
7,QVQLVESVGGLVQAGGSLRLSCAASGRTFGRYAMGWYRQAPGKERELVAGISRSGDSTHYADSVKGRFTISRDNAKNTVSLQMNSLKPEDTAVYYCNKETPTIGARKYEYWGQGTQVTVSS,low polyreactivity
8,QVQLVESVGGLVQAGGSLRLSCAASGRTFHGNAMRWYRQARGKERELVAAISYSGGRTYYADSVKGRFTISRDNAKNTVYLQMNSLKPEDTAVYYCAAWGSSYSFDYWGQGTQVTVSS,high polyreactivity
9,QVQLVESVGGLVQAGGSLRLSCAASGRTFNYYARGWYRQAPGKERELVAAISWSGTPTYYADSVKGRFTISRDNAKNTVYLQMNSLKPEDTAVYYCAAYLVSYPRGNYIRYDYWGQGTQVTVSS,low polyreactivity
10,QVQLVESVGGLVQAGGSLRLSCAASGRTFRKYAMGWYRQAQGKERELVASITYSGGSTYYADSVKGRFTISRDNAKNTVYLQMNSLKPEDTAVYYCAARLHWIRYPQTLYDYWGQGTQVTVSS,high polyreactivity
11,QVQLVESVGGLVQAGGSLRLSCAASGRTFSKYAMGWYRQEPGQERELVAAITSRGSSTYYADSVKGRFTISRDNANNTVYLQMNSLKPEETAVYYCNAGGYSKRTGRYRSGSDYWGQGTHVTVSS,high polyreactivity
12,QVQLVESVGGLVQAGGSLRLSCAASGRTFYFYAMGWYRQAPGKERELVAAITSGDTTHYADSVKGRFTISRDNAKNTVYLQMNSLKPDDTAVYYCAADKFKKISGYQRRSNYWGQGTQVTVSS,low polyreactivity
13,QVQLVESVGGLVQAGGSLRLSCAASGRTFYHYAMGWYRQAPGKERELVAAITWSGGSTYYADSVKGRFTISRDNAKNTVYLQMNSLKPEDTAVYYCAAAYRPWRGGYYPVGYYYWGQGTQVTVSS,high polyreactivity
14,QVQLVESVGGLVQAGGSLRLSCAASGRTFYRYAMGWYRPAPGKERELVAAITASGGSTYYADSVKGRFTISRDNAQNTVYLQMKSLKPEDTAVYYCAKGGKSRYSTWHGDYWGQGTQVTVSS,high polyreactivity
15,QVQLVESVGGLVQAGGSLRLSCAASGRTIVTNAIGWYRQAPGKERELVAAISRRTGSTYYADSVKGRFTISRDNAKNTVYLQMNSLKPEDTAVYYCAAKGYGSAPTYRHNYWGQGTQVTVSS,high polyreactivity
16,QVQLVESVGGLVQAGGSLRLSCAASGRTLFTNGMGWYRQAPGKESELVAAISTSGGSTHYADSVKGRFTISRDNAKNTVYLQMNSLKPEDTAVYYCAVDVLTVGQSYDHWGQGTQVTVSS,high polyreactivity
17,QVQLVESVGGLVQAGGSLRLSCAASGSIFDSNAMGWYRQAPGKVRELVASITSSGGSTYYADSVKGRFTISRDNAKKTVYLQMNSLKPEDTAVYYCAAKQAQRRYRQWSTSGYWGQGTQVTVSS,high polyreactivity
18,QVQLVESVGGLVQAGGSLRLSCAASGSIFDWNAMGWYREAPGKERELVASIDWDGGRTYYADSVKGRFTISRDNAKNTVYLQMNSLKPEDTAVYYCAATYYYDWWRGRWSPHIMDYWGQGTQVTVSS,low polyreactivity
19,QVQLVESVGGLVQAGGSLRLSCAASGSIFEWSAMGWYRQAPGKERELVADISSVGSTYYADSVKGRFTISRDNAKNTVYLQMNSLKPEDTAVYYCAADGTWVRSPHFYYWGQGTQVTVSS,low polyreactivity
20,QVQLVESVGGLVQAGGSLRLSCAASGSIFGRYVMGWYRQAPGKERELVAAITSGGTTNYADSVKGRFTISRDNAKHTVYLQMNSLKPEDTAVYSCNADYYSRIVGVRIYDYWGQGTQVTVSS,low polyreactivity
21,QVQLVESVGGLVQAGGSLRLSCAASGSIFGSYAMGWYRQAPGKERELVAAITYSGTSTYYADSVKGRFTISRDNAKNTVYLQMNSLKPEDTAVYYCYAVSRHRSKFDYWGQGTQVTVSS,high polyreactivity
